Results from patent US6645728 (University of California, dated 2003).

T1: IKKα-T7 (murine, UniProt Q60680 1-745)
T1 construct: also called T7-IKKα; murine IKKα/CHUK
T1 sequence (looked up): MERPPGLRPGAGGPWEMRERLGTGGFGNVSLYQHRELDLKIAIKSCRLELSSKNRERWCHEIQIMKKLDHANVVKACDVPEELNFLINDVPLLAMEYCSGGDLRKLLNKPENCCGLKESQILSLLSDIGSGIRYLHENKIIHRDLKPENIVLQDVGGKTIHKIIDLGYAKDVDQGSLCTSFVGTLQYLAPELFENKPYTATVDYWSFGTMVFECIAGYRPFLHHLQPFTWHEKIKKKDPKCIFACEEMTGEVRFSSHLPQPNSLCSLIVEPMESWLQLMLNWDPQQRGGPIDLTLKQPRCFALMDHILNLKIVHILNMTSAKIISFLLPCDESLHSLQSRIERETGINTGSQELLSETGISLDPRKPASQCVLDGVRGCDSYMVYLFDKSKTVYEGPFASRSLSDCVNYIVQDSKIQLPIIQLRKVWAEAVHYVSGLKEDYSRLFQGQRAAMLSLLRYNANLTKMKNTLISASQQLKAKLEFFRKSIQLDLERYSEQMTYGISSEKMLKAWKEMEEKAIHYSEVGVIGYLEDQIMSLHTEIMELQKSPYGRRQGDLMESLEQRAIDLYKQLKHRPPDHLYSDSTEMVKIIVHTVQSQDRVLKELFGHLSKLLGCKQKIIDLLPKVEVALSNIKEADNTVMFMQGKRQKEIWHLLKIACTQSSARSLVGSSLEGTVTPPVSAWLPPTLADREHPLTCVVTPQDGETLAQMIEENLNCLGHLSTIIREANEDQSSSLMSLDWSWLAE

B1: Myc-N1-220 (other, not shown: small tags and cut ends)
chain: MAVMEMACPGAPGSAVGQQKELPKPKEKTPPLGKKQSSVYKLEAVEKSPVFCGKWEILNDVITKGTAKEGSEAGPAAISIIAQAECENSQEFSPTFSERIFIAGSKQYSQSESLDQIPNNVAHATEGKMARVCWKGKRRSKARKKRKKKSSKSLAHAGVALAKPLPRTPEQESCTIPVQEDESPLGAPYVRNTPQFTKPLKEPGLGQLCFKQLGEGLRPA
notes: Treated as one construct; also called Myc-N1-200; N1-200
B2: Myc-N570-947 (other, not shown: small tags and cut ends)
chain: GRSCDAKVDVWSSCCMMLHMLNGCHPWTQFFRGPLCLKIASEPPPVREIPPSCAPLTAQAIQEGLRKEPIHRVSAAELGGKVNRALQQVGGLKSPWRGEYKEPRHPPPNQANYHQTLHAQPRELSPRAPGPRPAEETTGRAPKLQPPLPPEPPEPNKSPPLTLSKEESGMWEPLPLSSLEPAPARNPSSPERKATVPEQELQQLEIELFLNSLSQPFSLEEQEQILSCLSIDSLSLSDDSEKNPSKASQSSRDTLSSGVHSWSSQAEARSSSWNMVLARGRPTDTPSYFNGVKVQIQSLNGEHLHIREFHRVKVGDIATGISSQIPAAAFSLVTKDGQPVRYDMEVPDSGIDLQCTLAPDGSFAWSWRVKHGQLENRP
B3: Myc-N1-578 (other, not shown: small tags and cut ends)
chain: MAVMEMACPGAPGSAVGQQKELPKPKEKTPPLGKKQSSVYKLEAVEKSPVFCGKWEILNDVITKGTAKEGSEAGPAAISIIAQAECENSQEFSPTFSERIFIAGSKQYSQSESLDQIPNNVAHATEGKMARVCWKGKRRSKARKKRKKKSSKSLAHAGVALAKPLPRTPEQESCTIPVQEDESPLGAPYVRNTPQFTKPLKEPGLGQLCFKQLGEGLRPALPRSELHKLISPLQCLNHVWKLHHPQDGGPLPLPTHPFPYSRLPHPFPFHPLQPWKPHPLESFLGKLACVDSQKPLPDPHLSKLACVDSPKPLPGPHLEPSCLSRGAHEKFSVEEYLVHALQGSVSSSQAHSLTSLAKTWAARGSRSREPSPKTEDNEGVLLTEKLKPVDYEYREEVHWATHQLRLGRGSFGEVHRMEDKQTGFQCAVKKVRLEVFRAEELMACAGLTSPRIVPLYGAVREGPWVNIFMELLEGGSLGQLVKEQGCLPEDRALYYLGQALEGLEYLHSRRILHGDVKADNVLLSSDGSHAALCDFGHAVCLQPDGLGKSLLTGDYIPGTETHMAPEVVLGRSCDAKVD
notes: C-terminal deletion mutant of NIK
B4: Myc-N1-366 (other, not shown: small tags and cut ends)
chain: MAVMEMACPGAPGSAVGQQKELPKPKEKTPPLGKKQSSVYKLEAVEKSPVFCGKWEILNDVITKGTAKEGSEAGPAAISIIAQAECENSQEFSPTFSERIFIAGSKQYSQSESLDQIPNNVAHATEGKMARVCWKGKRRSKARKKRKKKSSKSLAHAGVALAKPLPRTPEQESCTIPVQEDESPLGAPYVRNTPQFTKPLKEPGLGQLCFKQLGEGLRPALPRSELHKLISPLQCLNHVWKLHHPQDGGPLPLPTHPFPYSRLPHPFPFHPLQPWKPHPLESFLGKLACVDSQKPLPDPHLSKLACVDSPKPLPGPHLEPSCLSRGAHEKFSVEEYLVHALQGSVSSSQAHSLTSLAKTWAARGSR
notes: as for B3
B5: Myc-N1-624 (other, not shown: small tags and cut ends)
chain: MAVMEMACPGAPGSAVGQQKELPKPKEKTPPLGKKQSSVYKLEAVEKSPVFCGKWEILNDVITKGTAKEGSEAGPAAISIIAQAECENSQEFSPTFSERIFIAGSKQYSQSESLDQIPNNVAHATEGKMARVCWKGKRRSKARKKRKKKSSKSLAHAGVALAKPLPRTPEQESCTIPVQEDESPLGAPYVRNTPQFTKPLKEPGLGQLCFKQLGEGLRPALPRSELHKLISPLQCLNHVWKLHHPQDGGPLPLPTHPFPYSRLPHPFPFHPLQPWKPHPLESFLGKLACVDSQKPLPDPHLSKLACVDSPKPLPGPHLEPSCLSRGAHEKFSVEEYLVHALQGSVSSSQAHSLTSLAKTWAARGSRSREPSPKTEDNEGVLLTEKLKPVDYEYREEVHWATHQLRLGRGSFGEVHRMEDKQTGFQCAVKKVRLEVFRAEELMACAGLTSPRIVPLYGAVREGPWVNIFMELLEGGSLGQLVKEQGCLPEDRALYYLGQALEGLEYLHSRRILHGDVKADNVLLSSDGSHAALCDFGHAVCLQPDGLGKSLLTGDYIPGTETHMAPEVVLGRSCDAKVDVWSSCCMMLHMLNGCHPWTQFFRGPLCLKIASEPPPVREIPPSCAP
notes: as for B3

Target: T2, NIK-T7 (Homo sapiens (Human), UniProt Q99558 1-947)
T2 construct: Full-length NIK in pEV3S with C-terminal T7 tag; also called pEV-NIK-T7
Experiment: co-immunoprecipitation from 293 lysates, anti-T7 IP, anti-Myc blot

Binding result, no binding:
B1
B2

Target: T1, IKKα-T7
Experiment: as above

Binding result, no binding:
B3
B1
B4
B5
